In the supplement of paper PMC10567573:
± gives the standard deviation.

Assay: protein stability index of a GFP-peptide fusion (GPS, HEK-293T) (PSI 1-6); higher = more stable
[1] = treatment: DMSO, c terminus: native
[2] = treatment: MLN4924 1 uM, 8 h, c terminus: native
[3] = treatment: DMSO, c terminus: a fixed tail appended
[4] = treatment: MLN4924 1 uM, 8 h, c terminus: a fixed tail appended
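Note: 24-mer peptide tiles fused after GFP, lentivirally expressed, FACS-sorted into six equal bins by GFP/DsRed ratio, decoded by Illumina sequencing, PSI is the read-weighted mean bin number.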

| Sequence | protein stability index [1] | protein stability index [2] | protein stability index [3] | protein stability index [4] |
| --- | --- | --- | --- | --- |
| HSLRAVSTDPPHHDHHDEFCLMP [BEX1] | 3 ± 0.6 | 3.76 ± 0.5 | – | – |
| LLTTSGIQFKKHEEEGIETQYFAE [CNOT7] | – | – | 4.13 ± 0.13 | 4.19 ± 0.11 |
| ADSLASKVTRLKSLALDIDRDAED [BET1L] | – | – | 5.3 ± 0.2 | 5.21 ± 0.21 |
| VKRLHEVGRTEPELLVAHAYTRYL [HMOX1] | – | – | 2.2 ± 0.26 | 2.4 ± 0.36 |
| HNRVSKEDEDIYKLRHDLKKTSIT [PLK2] | – | – | 4.02 ± 0.2 | 4.12 ± 0.081 |
| PKKIMPEAHSHYLYGHMLSAFRD [PPFIA4] | 2.35 ± 0.23 | 2.77 ± 0.35 | – | – |
| PSLQHLCRMSIRRVMPTQEVQELP [WSB1] | – | – | 3.34 ± 0.43 | 2.8 ± 0.35 |
| HEEVYFEPSSSKDSDENSKPSVDT [MIA2] | – | – | 5.62 ± 0.33 | 5.48 ± 0.31 |
| DLMGVLTKGVREVERALQLPREPG [FEM1A] | – | – | 2.82 ± 0.17 | 2.69 ± 0.37 |
| IRAAKGLDQALKEGGKLPPPPPPS [ZC2HC1A] | – | – | 4.35 ± 0.24 | 4.48 ± 0.4 |
| MDETSPLVSPERAQPPDYTFPSGS [PI4K2A] | – | – | 4.91 ± 0.15 | 4.78 ± 0.39 |
| PEDLAQLEELIDMAVLEEIQQELI [RPAIN] | – | – | 2.54 ± 0.14 | 2.89 ± 0.41 |
| AEASHYNSDLNNLLFCCQCVDVVF [RHOBTB3] | – | – | 2.52 ± 0.49 | 2.54 ± 0.54 |
| ILVQTPESESPQSHRAAGSGVSDY [TRIM9] | – | – | 4.49 ± 0.37 | 4.49 ± 0.21 |
| TQEPIFTFTASFSGKVFPFFAVWK [TRIM15] | – | – | 3.19 ± 0.36 | 2.89 ± 0.66 |
| FRPKDQTSVGMSFVAGGISGTVAA [SLC25A39] | – | – | 3 ± 0.11 | 2.96 ± 0.29 |
| SAAHEVELQRQKEAEKLERQLALP [NOP53] | – | – | 4.99 ± 0.33 | 5.19 ± 0.23 |
| LIGDFSKGYLFHTVAGKHQDLKYI [CDC25A] | – | – | 2.02 ± 0.32 | 1.81 ± 0.43 |
| RTVQSLEIDLDSMRNLKASLENSL [KRT18] | – | – | 3.14 ± 0.45 | 3.25 ± 0.27 |
| GLDPEPLPLMDLCRRSVRLALGRE [SPSB1] | – | – | 4.02 ± 0.61 | 3.62 ± 0.2 |
| RCSSMHFLVAEWNEPSINFYKRRG [SAT1] | – | – | 2.86 ± 0.33 | 2.42 ± 0.28 |
| MGERKGVNKYYPPDFNPEKHGSLN [YJU2B] | – | – | 4.11 ± 0.4 | 4.18 ± 0.12 |
| GVSALCAICGDRATGKHYGASSCD [HNF4A] | – | – | 3.6 ± 0.2 | 3.75 ± 0.45 |

| Sequence | protein stability index [1] | protein stability index [2] | protein stability index [3] | protein stability index [4] |
| --- | --- | --- | --- | --- |
| IPKSSDPEMRWNKGTILKASVDYI [TFE3] | – | – | 2.79 ± 0.32 | 3.03 ± 0.26 |
| LRTHIDAIILALPEDLQGILLKTG [DENND6A] | – | – | 2.17 ± 0.31 | 2.4 ± 0.084 |
| AWPFYKPVDAEALELHDYHDIIKH [BRD3] | – | – | 3.04 ± 0.17 | 3.24 ± 0.35 |
| MYRWKLSSHEPCSATCTTGVMSAY [ADAMTSL2] | – | – | 2.24 ± 0.74 | 2.2 ± 0.73 |
| VLGIPLTLVMFQSLGERMNTFVRY [KCNK9] | – | – | 3.24 ± 0.65 | 2.83 ± 0.48 |
| IYAYDAKIEIQTLTGLFKGDKCHS [CASP6] | – | – | 2.14 ± 0.7 | 2.26 ± 0.23 |
| RKDPYGKPVDMWACGVILYILLVG [CAMK2D] | – | – | 2.53 ± 0.12 | 3.04 ± 1.1 |
| FIMDSCDELIPEYLNFIRGVVDSE [HSP90AB1] | – | – | 2.37 ± 0.13 | 2.32 ± 0.32 |
| KKAIKDLGISPSTCSFNPGVIVAN [GLT8D2] | – | – | 2.95 ± 0.11 | 2.87 ± 0.43 |
| SCEEVAASSASLEPMWSGSTMRRM [EMID1] | – | – | 4.09 ± 0.3 | 4.35 ± 0.18 |
| TAHMLGVRELRIAFREFDRDRDGR [CABP4] | – | – | 3.68 ± 0.34 | 3.7 ± 0.076 |
| VLGGFLYAVGGSDGTSPLNTVERY [KLHL20] | – | – | 2.18 ± 0.32 | 2.47 ± 0.22 |
| GLAGFFASVAMICAIASGSELSES [SLC29A1] | – | – | 3 ± 0.53 | 2.9 ± 0.37 |
| MPATPSLKVVHELPACTLCAGPLE [TRIM15] | – | – | 3.95 ± 0.28 | 4.03 ± 0.2 |
| NHFVWRLIPVPMATQIQQLLQDKQ [VPS39] | – | – | 2.3 ± 0.44 | 2.16 ± 0.31 |
| SEKGKPYVDIQGLTASTMEILLDF [KLHL12] | – | – | 2.06 ± 0.5 | 2.25 ± 0.6 |
| MSTKESDFLCLLGVSYTFDNEDSE [MIA2] | – | – | 2.92 ± 0.14 | 2.91 ± 0.29 |
| GIRLSENVIDRMKESSPSGSKSQR [CHCHD3] | – | – | 4.65 ± 0.19 | 4.72 ± 0.2 |
| QLTKASLKPRGCSKPPWRPPGGKL [SPACA9] | – | – | 2.83 ± 0.29 | 2.92 ± 0.079 |
| IKSSLKDEYQYSFWDLFRSKDNMR [SLC2A12] | – | – | 2.39 ± 0.23 | 2.3 ± 0.21 |
| LDVRARLECEINTYRSLLESEDCK [KRT33B] | – | – | 4.23 ± 0.16 | 4.38 ± 0.25 |
| SAAVRGHPRALPPDARPHRRPHEL [HAGHL] | – | – | 4.404 ± 0.036 | 4.47 ± 0.13 |
| SGATTTAPSLSGKGNPEEEDVDTS [CTNNB1] | – | – | 5.61 ± 0.31 | 5.62 ± 0.17 |

| Sequence | protein stability index [1] | protein stability index [2] | protein stability index [3] | protein stability index [4] |
| --- | --- | --- | --- | --- |
| IVNSTEESDDAFDTVTIPVPSEEP [IQUB] | – | – | 5.5 ± 0.25 | 5.55 ± 0.21 |
| IAQCQDSPTSGKFRRGSGSACSLL [MCOLN1] | – | – | 3.4 ± 0.2 | 3.63 ± 0.2 |
| PPVLSFRLVHTTAIEHFQPNADLL [FCHO1] | – | – | 2.54 ± 0.15 | 2.17 ± 0.25 |
| MTSLTQRSSGLVQRRTEASRNAAD [GOLPH3] | – | – | 4.89 ± 0.27 | 5.03 ± 0.19 |
| LRYYYDKNIIHKTSGKRYVYRFVC [ETS2] | – | – | 2.79 ± 0.48 | 2.53 ± 0.62 |
| AAESPDPPQSPQGASSLPTTMNYP [MAGEA3] | – | – | 5.23 ± 0.13 | 5.3 ± 0.1 |
| PNLASDSDLSRRSSSTMSKSEYME [KCNA1] | – | – | 5.16 ± 0.27 | 5.22 ± 0.16 |
| MASPCSAMAYHHDSRRIFVGQDNG [WDFY1] | – | – | 2.64 ± 0.18 | 2.67 ± 0.11 |
| EGYTWRVAQLEDRRSTTDLRGTQF [ZSWIM9] | – | – | 3.37 ± 0.55 | 3.28 ± 0.24 |
| IYTHFTCATDTKNVQFVFDAVTDV [GNAI1] | – | – | 2.55 ± 0.46 | 3.28 ± 1.5 |
| VSLSLENRELWKEFSSVGTEMIIT [TBX6] | – | – | 2.71 ± 0.62 | 2.31 ± 0.45 |
| QQAALPRLSRRMASQHSYPLNRFS [CBY2] | – | – | 3.38 ± 0.31 | 3.45 ± 0.31 |
| EATTSDPQDLDMKKHRCKCCSIM [PALM] | 4.3 ± 0.24 | 4.58 ± 0.23 | – | – |
| SESETSTMAAKKNRQSSDKQNGRV [C18orf25] | – | – | 5.35 ± 0.17 | 5.16 ± 0.17 |
| TQIGFADLMGVLTKGVREVERALQ [FEM1A] | – | – | 2.29 ± 0.61 | 2.28 ± 0.45 |
| EKKLFECLTCGKSFRQGMHLTRHQ [ZNF263] | – | – | 2.1 ± 0.41 | 2.27 ± 0.19 |
| GQWLGGRQIRTNWATRKPPAPKST [TIA1] | – | – | 3.57 ± 0.3 | 3.73 ± 0.34 |
| PNLVNLIEVFRRKRKMHLVFEYCD [CDKL4] | – | – | 2.06 ± 0.64 | 2.07 ± 0.3 |
| QRITKQLEKWMQKNVEENLYSSSL [GLT8D2] | – | – | 2.89 ± 0.28 | 3.03 ± 0.21 |
| LCRKCANDIFQAANPYWTSRGSSV [TRIM63] | – | – | 2.32 ± 0.36 | 2.58 ± 0.49 |
| AQLRDAVQSLQLSPRTRGSWSQPQ [RASAL3] | – | – | 3.65 ± 0.15 | 3.6 ± 0.35 |
| TNTGPAGSSASTSPAPLDTCPSSS [DYRK1B] | – | – | 5.24 ± 0.17 | 5.31 ± 0.18 |
| RWEPSGKAEPRLPDRVYIHPDSPA [TBX6] | – | – | 3.98 ± 0.11 | 4.13 ± 0.18 |

| Sequence | protein stability index [1] | protein stability index [2] | protein stability index [3] | protein stability index [4] |
| --- | --- | --- | --- | --- |
| PGSASLAQSRLEDPGQDLVPKQAI [DLX1] | – | – | 4.83 ± 0.48 | 5 ± 0.34 |
| RDVVLCSLLNFLPEGVNKLKISPV [TENT5C] | – | – | 2.2 ± 0.44 | 2.02 ± 0.43 |
| DLDDFAGFSCNQGRYPLIQTLRQE [CHIT1] | – | – | 3.44 ± 0.2 | 3.48 ± 0.082 |
| LEFDLLIFSFGQLPLALVTWVPMF [SOAT2] | – | – | 3.17 ± 0.49 | 3.02 ± 0.33 |
| SNTGSESNSATVEEPPTDPIPEDE [SMARCE1] | – | – | 5.48 ± 0.45 | 5.33 ± 0.51 |
| AEGARPLRENVPRVIMIVTDGRPQ [MATN2] | – | – | 2.83 ± 0.61 | 3.56 ± 0.35 |
| EEERDEEEDKRRKGEEVTPISAIR [EPB41L3] | – | – | 5.59 ± 0.28 | 5.66 ± 0.21 |
| AIILSSCLLGLGSLVLILSLSYTV [SLC2A12] | – | – | 3.06 ± 0.4 | 3.26 ± 0.097 |
| LLNLVDHTEVVRDLTFAPDGSLIL [WSB1] | – | – | 2.24 ± 0.13 | 2.16 ± 0.16 |
| NEDPLVLLAWRCTKLSLLAIHGYT [FBXO33] | – | – | 3.05 ± 0.33 | 2.91 ± 0.65 |
| YPFQDSEPVLLFGKIRRGAYALPA [TRIB3] | – | – | 2.48 ± 0.27 | 2.66 ± 0.12 |
| TEFRKGAQSLPGPCAAAREGRLER [IRX6] | – | – | 4.53 ± 0.17 | 4.62 ± 0.21 |
| GTPGPFTKEGGMLAYYEVCSWKGA [CHIT1] | – | – | 2.47 ± 0.17 | 2.55 ± 0.55 |
| LMADLVADISEAEQRTIQAQKESL [APBB1IP] | – | – | 3.5 ± 0.56 | 3.6 ± 0.45 |
| ALPENEFKKQIWLLFEYPESSSPA [KCNA4] | – | – | 2.45 ± 0.16 | 2.44 ± 0.5 |
| RRVDFCKDPSAIGKKQVPCFASML [CASP6] | – | – | 2.43 ± 0.17 | 2.54 ± 0.23 |
| NVINHFYCDLPQLFQLSCSSTQLN [OR3A1] | – | – | 3 ± 0.66 | 2.84 ± 0.34 |
| DFGSAAASGSFPSQVTATSGNGDF [CLINT1] | – | – | 4.95 ± 0.17 | 4.69 ± 0.26 |
| GVKSRIQALRQMNEGAIDCVNYEG [DLC1] | – | – | 3.77 ± 0.32 | 3.87 ± 0.36 |
| ESGKSTIVKQMKIIHEAGYSEEEC [GNAI1] | – | – | 5.16 ± 0.18 | 4.85 ± 0.13 |
